Reference: paper PMC2958304

Target: Fat (Ft), full-length (pAct-ft) (Drosophila) (UniProt P33450)
Assay: cell aggregation assay; S2 cells transfected with ft mixed with S2 cells transfected with ds (one set cotransfected with pMK33B fj forms, with or without CuSO4 for 16 hr); rotated 100 rpm 2 hr, immunolabelled; percent of ft-expressing cells binding to ds-expressing cells counted

UniProt P33450, sequence (P33450 36-5147): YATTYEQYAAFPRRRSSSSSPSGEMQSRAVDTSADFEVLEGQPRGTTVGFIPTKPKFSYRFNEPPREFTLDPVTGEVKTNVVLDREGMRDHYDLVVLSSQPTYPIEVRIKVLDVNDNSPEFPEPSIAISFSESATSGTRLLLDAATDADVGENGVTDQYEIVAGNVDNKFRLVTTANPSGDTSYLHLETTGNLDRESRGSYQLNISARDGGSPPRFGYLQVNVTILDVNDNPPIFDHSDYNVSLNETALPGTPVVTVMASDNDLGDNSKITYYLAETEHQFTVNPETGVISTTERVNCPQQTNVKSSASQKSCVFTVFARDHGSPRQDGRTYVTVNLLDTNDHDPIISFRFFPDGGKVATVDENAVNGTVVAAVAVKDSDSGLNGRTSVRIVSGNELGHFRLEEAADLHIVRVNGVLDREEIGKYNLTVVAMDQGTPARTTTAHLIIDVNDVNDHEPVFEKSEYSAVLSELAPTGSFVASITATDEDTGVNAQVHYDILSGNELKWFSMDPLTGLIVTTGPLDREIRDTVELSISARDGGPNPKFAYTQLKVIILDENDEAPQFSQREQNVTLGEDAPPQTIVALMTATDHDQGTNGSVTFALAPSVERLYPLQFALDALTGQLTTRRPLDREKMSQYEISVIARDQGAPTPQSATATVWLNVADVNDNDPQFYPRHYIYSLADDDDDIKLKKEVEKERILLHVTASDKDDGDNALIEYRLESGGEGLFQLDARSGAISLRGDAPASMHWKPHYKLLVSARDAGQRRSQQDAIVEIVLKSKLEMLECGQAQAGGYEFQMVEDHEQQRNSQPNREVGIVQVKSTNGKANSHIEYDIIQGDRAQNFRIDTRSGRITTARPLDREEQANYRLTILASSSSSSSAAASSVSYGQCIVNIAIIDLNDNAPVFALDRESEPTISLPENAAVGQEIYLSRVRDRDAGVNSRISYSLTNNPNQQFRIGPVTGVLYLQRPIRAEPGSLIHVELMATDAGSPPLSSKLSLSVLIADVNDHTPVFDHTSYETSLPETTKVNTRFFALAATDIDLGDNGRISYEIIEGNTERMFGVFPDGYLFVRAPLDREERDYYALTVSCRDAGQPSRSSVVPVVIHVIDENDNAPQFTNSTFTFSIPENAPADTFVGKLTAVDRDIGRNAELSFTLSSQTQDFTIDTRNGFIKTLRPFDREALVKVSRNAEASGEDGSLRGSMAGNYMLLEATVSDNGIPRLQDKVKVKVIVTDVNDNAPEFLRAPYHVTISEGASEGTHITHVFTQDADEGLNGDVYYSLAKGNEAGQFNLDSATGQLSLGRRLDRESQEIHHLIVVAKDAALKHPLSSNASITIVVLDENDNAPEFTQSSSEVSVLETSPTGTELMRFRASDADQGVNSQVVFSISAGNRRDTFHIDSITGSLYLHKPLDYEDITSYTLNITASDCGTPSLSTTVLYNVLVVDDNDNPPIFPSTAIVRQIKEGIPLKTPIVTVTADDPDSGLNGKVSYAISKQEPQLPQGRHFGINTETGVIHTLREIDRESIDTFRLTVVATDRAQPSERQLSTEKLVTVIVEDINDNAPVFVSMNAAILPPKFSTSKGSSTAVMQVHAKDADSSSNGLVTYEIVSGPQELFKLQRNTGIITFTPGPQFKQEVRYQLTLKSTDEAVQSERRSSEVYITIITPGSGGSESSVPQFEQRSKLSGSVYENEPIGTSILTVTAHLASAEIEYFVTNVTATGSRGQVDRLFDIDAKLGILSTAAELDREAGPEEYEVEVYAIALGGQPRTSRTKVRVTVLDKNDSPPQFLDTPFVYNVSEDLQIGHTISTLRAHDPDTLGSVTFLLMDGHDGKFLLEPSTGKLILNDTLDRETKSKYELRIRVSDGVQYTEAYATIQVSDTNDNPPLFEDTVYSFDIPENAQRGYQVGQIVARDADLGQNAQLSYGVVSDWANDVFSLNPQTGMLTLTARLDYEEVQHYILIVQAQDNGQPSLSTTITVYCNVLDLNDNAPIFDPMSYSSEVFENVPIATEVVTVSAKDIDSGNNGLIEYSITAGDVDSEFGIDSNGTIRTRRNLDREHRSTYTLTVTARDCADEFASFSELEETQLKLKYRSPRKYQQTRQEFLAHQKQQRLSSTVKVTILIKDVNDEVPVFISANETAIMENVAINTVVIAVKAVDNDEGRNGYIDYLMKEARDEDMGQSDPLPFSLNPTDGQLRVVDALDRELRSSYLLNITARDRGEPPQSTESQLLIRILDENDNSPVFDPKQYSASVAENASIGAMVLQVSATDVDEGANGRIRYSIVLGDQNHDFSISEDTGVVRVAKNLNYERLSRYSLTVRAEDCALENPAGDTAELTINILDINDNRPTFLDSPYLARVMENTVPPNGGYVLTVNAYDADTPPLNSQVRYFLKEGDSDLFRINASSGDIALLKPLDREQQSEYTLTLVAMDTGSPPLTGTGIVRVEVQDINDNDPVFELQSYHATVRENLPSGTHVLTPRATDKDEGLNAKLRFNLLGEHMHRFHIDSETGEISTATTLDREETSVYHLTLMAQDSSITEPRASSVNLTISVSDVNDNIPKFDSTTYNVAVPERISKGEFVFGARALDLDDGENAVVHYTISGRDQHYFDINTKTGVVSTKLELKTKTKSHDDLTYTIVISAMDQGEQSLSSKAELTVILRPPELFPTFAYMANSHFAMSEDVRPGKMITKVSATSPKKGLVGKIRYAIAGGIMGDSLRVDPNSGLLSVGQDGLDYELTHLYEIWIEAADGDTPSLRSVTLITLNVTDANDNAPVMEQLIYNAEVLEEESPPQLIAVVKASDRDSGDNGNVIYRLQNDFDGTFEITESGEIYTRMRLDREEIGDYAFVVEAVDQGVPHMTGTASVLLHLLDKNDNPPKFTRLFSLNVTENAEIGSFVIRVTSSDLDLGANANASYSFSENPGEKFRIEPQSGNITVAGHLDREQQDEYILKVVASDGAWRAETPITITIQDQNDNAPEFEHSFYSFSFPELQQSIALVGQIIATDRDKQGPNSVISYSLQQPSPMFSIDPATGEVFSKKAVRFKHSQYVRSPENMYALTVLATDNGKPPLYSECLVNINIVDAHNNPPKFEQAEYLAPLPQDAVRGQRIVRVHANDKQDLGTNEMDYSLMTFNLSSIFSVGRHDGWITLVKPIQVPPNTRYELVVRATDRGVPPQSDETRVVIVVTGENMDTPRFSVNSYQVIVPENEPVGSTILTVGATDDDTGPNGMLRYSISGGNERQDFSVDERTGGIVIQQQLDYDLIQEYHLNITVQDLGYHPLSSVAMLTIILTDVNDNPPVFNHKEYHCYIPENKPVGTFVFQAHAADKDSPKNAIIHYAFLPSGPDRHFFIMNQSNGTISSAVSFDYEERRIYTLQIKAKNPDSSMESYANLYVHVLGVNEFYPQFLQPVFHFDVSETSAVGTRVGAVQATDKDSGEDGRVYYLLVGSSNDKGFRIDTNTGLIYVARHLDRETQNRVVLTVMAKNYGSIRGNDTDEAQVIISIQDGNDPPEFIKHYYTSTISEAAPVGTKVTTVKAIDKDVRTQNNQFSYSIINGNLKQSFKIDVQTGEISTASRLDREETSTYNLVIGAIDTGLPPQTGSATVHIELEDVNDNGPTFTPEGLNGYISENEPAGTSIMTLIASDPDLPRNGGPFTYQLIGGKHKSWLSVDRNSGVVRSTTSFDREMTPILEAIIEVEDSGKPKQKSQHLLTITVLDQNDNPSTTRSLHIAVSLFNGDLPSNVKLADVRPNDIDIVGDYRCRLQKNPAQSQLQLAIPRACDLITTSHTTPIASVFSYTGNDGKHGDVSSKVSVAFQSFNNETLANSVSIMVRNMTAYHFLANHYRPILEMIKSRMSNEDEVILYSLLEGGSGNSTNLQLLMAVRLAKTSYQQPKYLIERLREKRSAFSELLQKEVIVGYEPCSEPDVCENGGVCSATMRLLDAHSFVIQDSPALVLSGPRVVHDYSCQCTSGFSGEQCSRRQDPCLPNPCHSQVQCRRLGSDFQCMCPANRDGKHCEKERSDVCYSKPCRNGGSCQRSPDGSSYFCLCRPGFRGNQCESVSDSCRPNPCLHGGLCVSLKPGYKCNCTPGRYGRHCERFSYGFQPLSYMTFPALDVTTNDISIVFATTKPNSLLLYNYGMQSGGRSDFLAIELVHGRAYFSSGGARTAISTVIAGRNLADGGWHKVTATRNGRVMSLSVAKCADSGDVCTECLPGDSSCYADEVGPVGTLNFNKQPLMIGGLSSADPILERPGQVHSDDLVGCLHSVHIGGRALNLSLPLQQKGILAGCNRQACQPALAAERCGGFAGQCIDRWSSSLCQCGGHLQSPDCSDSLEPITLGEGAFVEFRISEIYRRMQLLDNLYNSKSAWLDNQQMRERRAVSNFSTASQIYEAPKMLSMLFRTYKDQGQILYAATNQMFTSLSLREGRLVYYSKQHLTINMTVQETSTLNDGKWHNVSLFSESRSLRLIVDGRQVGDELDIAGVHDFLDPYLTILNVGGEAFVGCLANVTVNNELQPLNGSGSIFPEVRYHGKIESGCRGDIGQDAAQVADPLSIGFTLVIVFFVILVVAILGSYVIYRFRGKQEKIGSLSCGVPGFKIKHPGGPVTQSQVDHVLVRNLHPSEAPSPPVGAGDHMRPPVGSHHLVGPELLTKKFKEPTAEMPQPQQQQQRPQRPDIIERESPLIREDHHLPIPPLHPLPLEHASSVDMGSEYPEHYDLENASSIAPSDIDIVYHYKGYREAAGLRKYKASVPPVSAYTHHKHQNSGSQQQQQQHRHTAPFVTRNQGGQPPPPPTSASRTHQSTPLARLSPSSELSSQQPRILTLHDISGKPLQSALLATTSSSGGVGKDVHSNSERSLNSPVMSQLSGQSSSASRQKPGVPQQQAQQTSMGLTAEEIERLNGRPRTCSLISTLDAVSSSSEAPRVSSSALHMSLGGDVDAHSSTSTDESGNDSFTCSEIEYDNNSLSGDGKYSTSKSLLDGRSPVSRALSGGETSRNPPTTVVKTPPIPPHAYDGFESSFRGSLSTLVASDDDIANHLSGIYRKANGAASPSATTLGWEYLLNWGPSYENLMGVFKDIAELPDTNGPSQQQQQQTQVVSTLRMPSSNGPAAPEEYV

Substance “Dachsous (Ds), untagged form, coexpressed with Fj or GNT-Fj (phosphorylated by Fj) (receptor)” has a reduction of binding against the same cells without Fj induction of 40%.
